{"source": "patent US20190202896A1", "about": "(NOVOBIND LIVESTOCK THERAPEUTICS, published 2019)", "data": [{"molecular_target": "T1, PrgI (Salmonella Type III secretion needle protein), recombinant (Salmonella typhimurium (strain LT2) as …, UniProt P41784 1-80)", "T1 sequence": "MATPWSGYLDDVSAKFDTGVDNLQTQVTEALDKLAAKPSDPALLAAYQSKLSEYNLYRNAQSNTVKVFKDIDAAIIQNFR", "experiment": "phage ELISA, antigen-coated wells, anti-M13-HRP, A405", "units": {"binding over background (PBS-only wells)": "fold"}, "values": [{"binder": "NBX0207 (VHH, also called Clone 104) VHH: QVQLQESGGGLVQAGKSLRLSCAASTAILSIDSMGWNRQAVGNQRELVAVIARGGSTKYADSVKGRFTITRDISKNTIYLQMNSLKPEDTGVYYCAADPGGASPLSWGQGTQVTVSL", "binding over background (PBS-only wells)": "≥ 4"}, {"binder": "NBX0208 (VHH, also called Clone 105) VHH: QVQLQESGGGMVQAGGSLRLACTASGDISTIDVMGWNRQAPGKHRELVAIIARGGTIKYADSVKGRFTISRDNTKNTVTVYLQMNNVNAEDTAVYYCAVDTGSPRLTWGQGTQVTVSS", "binding over background (PBS-only wells)": "≥ 4"}, {"binder": "NBX0210 (VHH, also called Clone 107) VHH: QVQLQESGGGLVQAGGSLRLACTASGDISSISVMGWNRQAPGKQQRELVAAIASGGSVKYADSVKGRFTISRDNTKNTVYLQMNSVNAEDTAVYYCAVDTGSPRLTWGQGTQVTVSS", "binding over background (PBS-only wells)": "≥ 4"}, {"binder": "NBX0209 (VHH, also called Clone 106) VHH: QVQLQESGGGLVQAGGSLRLSCAASGFTFSSSIMAWYRQAPGKQREAIASIPSFGSAVYADSVKDRFTISRDNNKNMVYLQMNSLKPEDTAVYYCNTRLYWGQGTQVTVSS", "binding over background (PBS-only wells)": "≥ 4"}, {"binder": "NBX0215 (VHH, also called Clone 112) VHH: QVQLQESGGGLVQAGGSLRLSCAASGFTFSSAIMAWYRQAPGKQREAIASIPSFGSAVYADSVKDRFTISRDNNKNMVYLQMDSLKPEDTAVYYCNTRLYWGQGTQVTVST", "binding over background (PBS-only wells)": "≥ 4"}, {"binder": "NBX0211 (VHH, also called Clone 108) VHH: QVQLQESGGGLVQAGGSLRLSCAASGFTFSTNILAWYRQAPGKQREAIASITPFGSAVYANSVKDRFTISRDNNKNMVYLQMNSLKPEDTAVYSCNTQLYWGQGTQVTVST", "binding over background (PBS-only wells)": "≥ 4"}]}, {"molecular_target": "T2, PrgI-SipD", "T2 construct": "also called PrgI-SipD fusion", "T2 chain": "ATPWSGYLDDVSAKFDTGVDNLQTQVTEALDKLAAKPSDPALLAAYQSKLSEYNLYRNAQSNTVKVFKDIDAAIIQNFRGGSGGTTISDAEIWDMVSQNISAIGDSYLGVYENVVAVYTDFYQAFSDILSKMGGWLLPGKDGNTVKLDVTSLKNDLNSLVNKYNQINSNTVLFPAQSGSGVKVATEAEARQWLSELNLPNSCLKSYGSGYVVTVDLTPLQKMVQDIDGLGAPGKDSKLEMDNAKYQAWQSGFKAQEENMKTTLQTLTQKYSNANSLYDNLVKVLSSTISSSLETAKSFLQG", "experiment": "phage ELISA, antigen-coated wells, anti-M13-HRP, A405", "units": {"binding over background (PBS-only wells)": "fold"}, "values": [{"binder": "NBX0224 (VHH, also called Clone 121) VHH: QVQLQQSGGGLVQAGGSLRLSCAASGLTFSSYAMGWFRQAPGKEREFIVAIGWSGGSTYYADSVKGRFTISRDNAKNTVYLHMNSLKPEDTAVYYCAARRTTAWGKGTDYWGQGTQVTVSS", "binding over background (PBS-only wells)": "≥ 4"}, {"binder": "NBX0222 (VHH, also called Clone 119) VHH: QVQLQESGGGLVQAGGSLRLSCAASGIDSSFYVMAWYRQAPGKQRELVASLGTPDSATYADFVKGRFIISRDNAKSTVYLQMNSLKPEDTAVYYCYGLYRQVYWGQGTQVTVSS", "binding over background (PBS-only wells)": "≥ 4"}, {"binder": "NBX0229 (VHH, also called Clone 126) VHH: QVQLQESGGGLVQAGGSLRLSCAASGSGILFRISAMGWYRQAPGKERDLVAGISSGGSTNYADSVKGRFTISRDNAKNTVYLQMNSLKPEDTAVYYCNIVGRTDSWGQGTQVTVSS", "binding over background (PBS-only wells)": "≥ 4"}, {"binder": "NBX0219 (VHH, also called Clone 116) VHH: QVQLQESGGGLVQPGGSLSLSCTASGSAFSGGDAMGWYRRAPGKQREFVAGISSGGIANYMDSVKGRFTISRDNAKKAVYLQMTSLKPEDTALYYCNSITAVLRGNSGWGQGTQVTVSS", "binding over background (PBS-only wells)": "≥ 4"}, {"binder": "NBX0230 (VHH, also called Clone 127) VHH: QVQLQESGGGSVQAGGSLRLSCAASARTLSNYAMGWFRQAPGKEREFVATISRSGGSIHYADSVKGRFTISRDNAKNTVNLQMNSLKVEDTAVYYCGRARGTGYAYTALNQYDYDYWGQGTQVTVSS", "binding over background (PBS-only wells)": "≥ 4"}, {"binder": "NBX0234 (VHH, also called Clone 131) VHH: QVQLQESGGGLVQAGGSLRLSCAASGRTFSTYAMGWFRQAPGKEREFVATISRSGDNIYYADSVKGRFTISRDNAKNTVSLQMNSLKVEDTAVYYCGRARGTGYAHTALNQYDYDYWGQGTQVTVSS", "binding over background (PBS-only wells)": "≥ 4"}, {"binder": "NBX0218 (VHH, also called Clone 115) VHH: QVQLQESGGGLVQAGGSLSLSCTASGSAFSGDAMGWYRRAPGKQREFVAGISSGAITNYMDSVKGRFTISRDNAKNTVYLQMTKLKPEDTAVYYCNRIQAVLRGNSGWGQGTQVTVSS", "binding over background (PBS-only wells)": "≥ 4"}, {"binder": "NBX0231 (VHH, also called Clone 128) VHH: QVQLQESGGGLVQAGGSLTLSCTTSGSAFSGDAMGWYRRAPGQEREFVAGISSGGITNYMNFVKGRFTISRDNAKNTVYLQMTSLKPEDTAVYYCNSIKAVLRGNSGWGQGTQVTVSS", "binding over background (PBS-only wells)": "≥ 4"}, {"binder": "NBX0235 (VHH, also called Clone 132) VHH: QVQLQESGGGLVQAGGSLSLSCRVSGSAFSGDAMGWYRRAPGKQREFVAGISSGGIENYMDSVKGRFTISRDNAKNTVYLRMSSLKPEDTAVYYCNLIKAVLRGNSGWGQGTQVTVSS", "binding over background (PBS-only wells)": "≥ 4"}, {"binder": "NBX0233 (VHH, also called Clone 130) VHH: QVQLQESGGGLVQAGGSLSLSCTASGSAFSGDAMGWYRRAPGKQRDFVAGISSGHITNYMDSVKGRFTISRDNAKNTVYLQMTKLKPEDTAVYYCNSITAVLRGNSGWGQGTQVTVSS", "binding over background (PBS-only wells)": "≥ 4"}, {"binder": "NBX0220 (VHH, also called Clone 117) VHH: QVQLQESGGGLVQAGGSLTLSCTASGSAFSGDAMGWYRRAPGKEREFVAGISSGGIPNYMGSVQGRFTISRDNAKNTVYLQMRRLKPEDTAVYYCNSISAVLRGNGVWGQGTQVTVSS", "binding over background (PBS-only wells)": "≥ 4"}, {"binder": "NBX0228 (VHH, also called Clone 125) VHH: QVQLQESGGGLVQAGGSLRLSCAASGIDSSFYVMAWYRQAPGQQRELVASISMTSADSPRYADFVKGRFTISRDNAKSTVYLQMNSLKPEDTAVYYCYGLYRQVHWGQGTQVTVSS", "binding over background (PBS-only wells)": "≥ 4"}, {"binder": "NBX0221 (VHH, also called Clone 118) VHH: QVQLQESGGGLVQAGGSLRLSCAASGLTFNNYAMGWFRQAPGKEREFVATISRDGTNTRYADSVKGRFTISRDNAKNTVDLQMNSLKPEDTAVYYCGVGRGTGYAYTAINEYDYSKWGQGTQVTVSS", "binding over background (PBS-only wells)": "≥ 4"}, {"binder": "NBX0232 (VHH, also called Clone 129) VHH: QVQLQESGGGLVQAGGSLRLSCAASGLTFHNYAMGWFRQAPGKEREFVATISRDGTNTHYADSVKGRFTISRDNAKNTVDLQMNSLKPEDTAVYYCGVGRGSGYAYTAINEYDYSKWGQGTQVTVSS", "binding over background (PBS-only wells)": "≥ 4"}, {"binder": "NBX0236 (VHH, also called Clone 133) VHH: QVQLQESGGGLVQAGGSLRLSCAASGLTFNNYAMGWFRQAPGKEREFVATISRDGTNTRYADSVKGRFTISRDNAKNTVNLQMNSLKPEDTAVYYCGVGRGTGYAYTAIREHDYSSWGQGTQVTVSS", "binding over background (PBS-only wells)": "≥ 4"}, {"binder": "NBX0227 (VHH, also called Clone 124) VHH: QVQLQESGGGLVQAGGSLRLACAASGLTFNNYAMGWFRQAPGKEREFVATISRDGTSTRYADSVKGRFTISRDNAKNTVNLQMNRLKPEDTAVYYCGVGRGSGYAYSAINEYDYSSWGQGTQVTVSS", "binding over background (PBS-only wells)": "≥ 4"}, {"binder": "NBX0223 (VHH, also called Clone 120) VHH: QVQLQESGGGLVQAGGSLRLSCVASGIDSSFYVMAWYRQAPGKQRELVASISSADSPRYEDFVKGRFTISRDNGKNTVYLQMNSLKPEDTAVYYCYGLYRQVHWGQGTQVTVSS", "binding over background (PBS-only wells)": "≥ 4"}, {"binder": "NBX0226 (VHH, also called Clone 123) VHH: QVQLQESGGGLVQAGGSLRLSCAASGITSSLYVMAWYRQAPGKQRELVAHINSGDSPRYADFVQGRFTISRDNGKNTVYLQMNSLKPEDTAVYYCYGLYRQVHWGQGTQVTVSS", "binding over background (PBS-only wells)": "≥ 4"}]}]}
